In US10702592B2, “Peptides and combination of peptides for use in immunotherapy against NHL and other cancers” (Immatics Biotechnologies GmbH, priority 2016, dated 2020):

Target: HLA-A*02:01 (Homo sapiens, UniProt P04439, D140Y/D185E/D98H/E176V/E277Q/G131W/G231S/I119V/I121R/I166T/I218V/L300P/L318F/N151K/N90K/P208A/P217A/Q86G/Q94H/R138H/R169H/T345S)
Test: MHC binding assay (UV-ligand exchange, beta2m ELISA)
Conditions: binding to HLA-A*02:01, UV-ligand exchange
Text: Candidate peptides for T cell based therapies according to the present invention were further tested for their MHC binding capacity (affinity). The individual peptide-MHC complexes were produced by UV-ligand exchange, where a UV-sensitive peptide is cleaved upon UV-irradiation, and exchanged with the peptide of interest as analyzed. Only peptide candidates that can effectively bind and stabilize the peptide-receptive MHC molecules prevent dissociation of the MHC complexes. To determine the yield of the exchange reaction, an ELISA was performed based on the detection of the light chain (β2m) of stabilized MHC complexes. The assay was performed as generally described in Rodenko et al. (Rodenko et al., 2006).
96 well MAXISorp plates (NUNC) were coated over night with 2 ug/ml streptavidin in PBS at room temperature, washed 4× and blocked for 1 h at 37° C. in 2% BSA containing blocking buffer. Refolded HLA-A*02:01/MLA-001 monomers served as standards, covering the range of 15-500 ng/ml. Peptide-MHC monomers of the UV-exchange reaction were diluted 100 fold in blocking buffer. Samples were incubated for 1 h at 37° C., washed four times, incubated with 2 ug/ml HRP conjugated anti-β2m for 1 h at 37° C., washed again and detected with TMB solution that is stopped with […]. Absorption was measured at 450 nm. Candidate peptides that show a high exchange yield (preferably higher than 50%, most preferred higher than 75%) are generally preferred for a generation and production of antibodies or fragments thereof, and/or T cell receptors or fragments thereof, as they show sufficient avidity to the MHC molecules and prevent dissociation of the MHC complexes.

| Substance | Peptide exchange (MHC class I binding score, peptide exchange yield) |
| --- | --- |
| 293 (GLAMVEAISYV; listed as Homo sapiens) [compound 293] | “++++” (≥75% = ++++) |
| 32 (VLNEDELPSV; listed as Homo sapiens) [compound 32] | “+++” (≥50 = +++) |
| 38 (YLTAEILELAGN; listed as Homo sapiens) [compound 38] | “++” (≥20% = ++) |
| 190 (GLIELVDQL; listed as Homo sapiens) [compound 190] | “+++” (≥50 = +++) |
| 264 (ILTGTPPGV; listed as Homo sapiens) [compound 264] | “+++” (≥50 = +++) |
| 175 (VMESILLRL; listed as Homo sapiens) [compound 175] | “+++” (≥50 = +++) |
| 211 (FIDDLFAFV; listed as Homo sapiens) [compound 211] | “+++” (≥50 = +++) |
| 154 (KLMNIQQQL; listed as Homo sapiens) [compound 154] | “+++” (≥50 = +++) |
| 103 (SLQDHLEKV; listed as Homo sapiens) [compound 103] | “+++” (≥50 = +++) |
| 198 (GLLSAVSSV; listed as Homo sapiens) [compound 198] | “+++” (≥50 = +++) |
| 307 (FLLPVAVKL; listed as Homo sapiens) [compound 307] | “+++” (≥50 = +++) |
| 165 (KLLEEIEFL; listed as Homo sapiens) [compound 165] | “+++” (≥50 = +++) |
| 168 (SLLSPLLSV; listed as Homo sapiens) [compound 168] | “+++” (≥50 = +++) |
| 160 (LLPPPSPAA; listed as Homo sapiens) [compound 160] | “+++” (≥50 = +++) |
| 85 (GLAPAEVVVATVA; listed as Homo sapiens) [compound 85] | “+++” (≥50 = +++) |
| 294 (KLYGPEGLELV; listed as Homo sapiens) [compound 294] | “++++” (≥75% = ++++) |
| 124 (FLGVVVPTV; listed as Homo sapiens) [compound 124] | “+++” (≥50 = +++) |
| 140 (FLFEDFVEV; listed as Homo sapiens) [compound 140] | “+++” (≥50 = +++) |
| 50 (LLLDGLIYL; listed as Homo sapiens) [compound 50] | “+++” (≥50 = +++) |

| Substance | Peptide exchange (MHC class I binding score, peptide exchange yield) |
| --- | --- |
| 132 (VLQDQVDEL; listed as Homo sapiens) [compound 132] | “++” (≥20% = ++) |
| 241 (FIPDFIPAV; listed as Homo sapiens) [compound 241] | “++” (≥20% = ++) |
| 169 (SSLEENLLHQV; listed as Homo sapiens) [compound 169] | “+++” (≥50 = +++) |
| 56 (GLQDLLFSL; listed as Homo sapiens) [compound 56] | “+++” (≥50 = +++) |
| 203 (ILDTIFHKV; listed as Homo sapiens) [compound 203] | “+++” (≥50 = +++) |
| 34 (LLWEDGVTEA; listed as Homo sapiens) [compound 34] | “+++” (≥50 = +++) |
| 153 (KLLKGIYAI; listed as Homo sapiens) [compound 153] | “+++” (≥50 = +++) |
| 200 (YLLDFEDRL; listed as Homo sapiens) [compound 200] | “++++” (≥75% = ++++) |
| 265 (ILWHFVASL; listed as Homo sapiens) [compound 265] | “++++” (≥75% = ++++) |
| 39 (QLLPQGIVPAL; listed as Homo sapiens) [compound 39] | “+++” (≥50 = +++) |
| 90 (HLDEVFLEL; listed as Homo sapiens) [compound 90] | “+++” (≥50 = +++) |
| 285 (SITAVTPLL; listed as Homo sapiens) [compound 285] | “+++” (≥50 = +++) |
| 162 (RLADLKVSI; listed as Homo sapiens) [compound 162] | “++++” (≥75% = ++++) |
| 14 (LLSDPTPGA; listed as Homo sapiens) [compound 14] | “++” (≥20% = ++) |
| 191 (GLSDISAQV; listed as Homo sapiens) [compound 191] | “+++” (≥50 = +++) |
| 69 (TLLAFPLLL; listed as Homo sapiens) [compound 69] | “++++” (≥75% = ++++) |
| 110 (YQYPFVLGL; listed as Homo sapiens) [compound 110] | “++++” (≥75% = ++++) |
| 164 (SLFDGAVISTV; listed as Homo sapiens) [compound 164] | “+++” (≥50 = +++) |
| 216 (KVVSNLPAI; listed as Homo sapiens) [compound 216] | “++” (≥20% = ++) |

| Substance | Peptide exchange (MHC class I binding score, peptide exchange yield) |
| --- | --- |
| 268 (VLFPLPTPL; listed as Homo sapiens) [compound 268] | “++++” (≥75% = ++++) |
| 304 (ALIRLDDLFL; listed as Homo sapiens) [compound 304] | “+++” (≥50 = +++) |
| 156 (KMLEDDLKL; listed as Homo sapiens) [compound 156] | “+++” (≥50 = +++) |
| 194 (SLAPFDREPFTL; listed as Homo sapiens) [compound 194] | “++” (≥20% = ++) |
| 273 (AILLPQPPK; listed as Homo sapiens) [compound 273] | “++” (≥20% = ++) |
| 146 (GLLQQPPAL; listed as Homo sapiens) [compound 146] | “+++” (≥50 = +++) |
| 76 (ALADLVPVDVVV; listed as Homo sapiens) [compound 76] | “++++” (≥75% = ++++) |
| 23 (ALVEDIINL; listed as Homo sapiens) [compound 23] | “++++” (≥75% = ++++) |
| 152 (KIMYTLVSV; listed as Homo sapiens) [compound 152] | “++” (≥20% = ++) |
| 218 (ALDQFLEGI; listed as Homo sapiens) [compound 218] | “+++” (≥50 = +++) |
| 217 (AQFGAVLEV; listed as Homo sapiens) [compound 217] | “+++” (≥50 = +++) |
| 183 (VLFETVLTI; listed as Homo sapiens) [compound 183] | “+++” (≥50 = +++) |
| 195 (ALIPDLNQI; listed as Homo sapiens) [compound 195] | “+++” (≥50 = +++) |
| 163 (SIFDAVLKGV; listed as Homo sapiens) [compound 163] | “++++” (≥75% = ++++) |
| 189 (SLSHLVPAL; listed as Homo sapiens) [compound 189] | “+++” (≥50 = +++) |
| 236 (SLFDGFFLTA; listed as Homo sapiens) [compound 236] | “++++” (≥75% = ++++) |
| 223 (FLQDIPDGLFL; listed as Homo sapiens) [compound 223] | “++” (≥20% = ++) |
| 289 (SLLAANNLL; listed as Homo sapiens) [compound 289] | “++++” (≥75% = ++++) |
